These results are taken from paper PMC3561948.

Where “and” joins values, the source holds several entries; their conditions need not be identical. Identical values can stand only once.

What is called stoichiometry N is a count of units in the complex or per binding partner.

For data set [1], the target named is N130 Mos1 (the N-terminal 130 amino acids of Mos1 transposase, DNA-binding domain) (Drosophila mauritiana). Put plainly: SEC-MALS. A general note: SEC sorts molecules by how far they enter the pores of the column.
Data set [2] addresses Mos1 transposase (containing the solubilizing mutation T216A), hydrogenated (Drosophila mauritiana). Put plainly: SAXS + SANS.
The target is the same in data set [3]. Put plainly: SAXS + SANS. The source holds these as a separate data set.
Data set [4] has the same target. The experiment in a line: SEC-MALS.
Data set [5] shares this target. The experiment in a line: […], room temperature, 20 mM Tris pH 7.5, 0.3 M KCl, 1 mM DTT.
The target in a further data set is T1, D-Mos1 transposase (UniProt Q7JQ07 1-345, T216A).
T1 sequence: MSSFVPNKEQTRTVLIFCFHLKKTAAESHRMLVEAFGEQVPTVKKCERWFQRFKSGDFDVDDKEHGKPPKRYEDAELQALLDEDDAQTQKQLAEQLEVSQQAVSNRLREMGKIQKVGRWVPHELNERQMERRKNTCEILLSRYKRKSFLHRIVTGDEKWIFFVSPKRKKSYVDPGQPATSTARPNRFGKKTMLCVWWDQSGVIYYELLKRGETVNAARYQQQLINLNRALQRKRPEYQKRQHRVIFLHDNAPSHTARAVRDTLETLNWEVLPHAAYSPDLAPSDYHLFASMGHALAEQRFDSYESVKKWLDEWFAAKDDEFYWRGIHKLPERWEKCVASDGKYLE
Put plainly: SANS contrast variation.

Another data set has as its target T2, H-Mos1 transposase (UniProt Q7JQ07 1-345, T216A).
T2 sequence: T1 sequence

Consider “N130 Mos1 (the N-terminal 130 amino acids of Mos1 transposase, DNA-binding domain) (domain or fragment)”, for which the stoichiometry N in data set [1] is 2 and 4.

As to “Mos1 transposase (containing the solubilizing mutation T216A), hydrogenated (enzyme)”, the stoichiometry N in data set [2], in data set [3], in data set [4] and in data set [5] was 2 throughout.

B1: 50-mer IR DNA (SEC2 duplex) (dsDNA)
DNA 1: TTTAAAAAAAACGACATTTCATACTTGTACACCTGATAGTTTCTATATTC
DNA 2: GAATATAGAAACTATCAGGTGTACAAGTATGAAATGTCGTTTTTTTTAAA
Regarding B1, the binding result in the data set with D-Mos1 transposase and with H-Mos1 transposase was “binds” in each case.
